A short description of this data set: soluble on expression in E. coli; label from the status in PepcDB or PDB records.
For the sequence “MAHHHHHHMSLAREKYLKRKRELLENINLIDIGEKISNTGKNEGNSKSDNIKKESRSRDFIKNDNRTRESFKKNDRGEYIDNDRKHLKSNNYNMLSSYNNKDIKNENRDLRKSPYDHRKLNNKNEQDILSNKTKRSSTNLQYNNDYAFVNKENNVLINNSSKMVNSTNNINEYLKDLNNIDINDSLILLFYVCKLLLDMCSKVNMNQSSMNTSVTSVEMLRDMKSKNRKNIKLFKINILNNILIYLSDENVNTLTQGNPNYKDNNFEKRHEEIRIDEKCIDIEHVGINIVIKVIYINNIKKLIFKYLYLINNNFKHDGVGNINMYDGRLNKNEEQNYFTTPLMEHKNINFMNN”, the “soluble on expression in E. coli” value is listed as “not soluble”. Take “MFVAEHEVEIRYAETDQMGVVYHSNYLVWLELGRTKLIQDLGFSYVEMEKEGIISPVLDLQISYRKAMRYGEKASVKTWVDTVSPLRVVYGYEIYNGDGELCITASTTNICAKKEGFRPVSFKKLYPEWYAKYEEIKKK”: the “soluble on expression in E. coli” value is recorded as “not soluble”. In the case of “MELQEVLRMNGGEGDTSYAKNSAYNQLVLAKVKPVLEQCVRELLRANLPNINKCIKVADLGCASGPNTLLTVRDIVQSIDKVGQEKKNELERPTIQIFLNDLFPNDFNSVFKLLPSFYRKLEKENGRKIGSCLIGAMPGSFYSRLFPEESMHFLHSCYCLQWLSQVPSGLVTELGIGTNKGSIYSSKASRLPVQKAYLDQFTKDFTTFLRIHSEELFSHGRMLLTCICKGVELDARNAIDLLEMAINDLVVEGHLEEEKLDSFNLPVYIPSAEEVKCIVEEEGSFEILYLETFKVLYDAGFSIDDEHIKAEYVASSVRAVYEPILASHFGEAIIPDIFHRFAKHAAKVLPLGKGFYNNLIISLAKKPEKSDM”, the “soluble on expression in E. coli” value is recorded as “soluble”. The value for “MGSDKIHHHHHHMPSPIDLHSHSTVSDGLLAPEALVAHAAEQGVKVLSLTDHDDTSGLAPAASAAAGHGMEFINGVEISVTWRRKTIHVVGLRVDPDHGPLREGLEKIRAGRHLRAENIAASLEKFGIKGSLEGAYAHARQGIIGRAHFARYLIDQGYASNMKAIFKRYLVKGKPGYVEHHWATLEEVVAWINGSGGVAVLAHPGRYDIGRSNMLLLLEEFRNLGGTAIEVVTGSHNADQFQEYAKLAHMFGLKSSMGSDYHGPGHGNIEMGRLPDLPRGCIPVWQDWPEIRSLNN” was “not soluble”; that for “MSLTKEPILELADMSDFEQLIRQHPEKIIILDFYATWCGPCKAIAPLYKELATTHKGIIFCKVDVDEAEDLCSKYDVKMMPTFIFTKNGDAIEALEGCVEDELRQKVLEHVSAQ” was “not soluble”; that for “MSPDKQAAALPRRERNRQAAAASPENSRGKGRRGQRGKNRGCVLTAIHLNVTDLGLGYETKEELIFRYCSGSCEAAETMYDKILKNLSRSRRLTSDKVGQACCRPVAFDDDLSFLDDSLVYHILRKHSAKRCGCI” was “soluble”. The value for “DFGKAMYIDNPRDHAVKHFSKVYQCQSADDVQAVKKKLYDDKTAIIEKVAEQTKSFDVASTQVSGRSLKGSIDVPTLPALPQPETRQGAPKLSVLISSAQEAMLCEYQDIDVYYQLPMGLSGELSAMIELFQANPMLKPWFPAILIGEDYQAARVFLETIQPELLITNNSGVGMITKELGLGWVAGPQMNTVNSYAFKCLQDEFAASGAFVSNELNMKQMRHIKRPKNMRSFYSIYHPNTLLTSRQCLFQQTEGCRKVKVNKGCLKRCDKRTSIINLKDNPYVVQKQKGSHNSIYSEHNVLNLQVLHDLPQLFTDVLIDLRDIQTETKVSASKPELIDAFLALLEDHSEQAIQTLNAMIQPTANAQYLKGL” was “not soluble”. The value for “MTTNSSSNTVVVYHSGYGHTHRMAEAVAEGAEATLHAIDAEGNLSEDGWAALDAADAIIFGTPTYMGGPSWQFKKFADASSKPWFSAKWQDKVFGGFTNSASLNGDKLNTLQYLVLLAGQHGGLWVSLGIKPSNLKSSVRNDANRMGSYIAPMAQSDADAAPEEMSVGDLETARLYGARVANVARQHKSTERV” was “soluble”; that for “AHHHHHHGSRYVKLPKENTYEFLERLKDWGKLYAPVKISDKFYDFREIDDVRKIEFHYNRTIMPPKKFFFKPREKLFEFDISKPEYREVIEEVEPFIIFGVHACDIYGLKILDTVYLDEFPDKYYKVRREKGIIIGISCMPDEYCFCNLRETDFADDGFDLFFHELPDGWLVRVGTPTGHRLVDKNIKLFEEVTDKDICAFRDFEKRRQQAFKYHEDWGNLRYLLELEMEHPMWDEEADKCLACGICNTTCPTCRCYEVQDIVNLDGVTGYRERRWDSCQFRSHGLVAGGHNFRPTKKDRFRNRYLCKNAYNEKLGLSYCVGCGRCTAFCPANISFVGNLRRILGLEENKCPPTVSEEIPKRGFAYSSNIRGDGV” was “not soluble”. For the sequence “MSLIDLYDLRMPQRTGTYVLHEENLAIIETGPSPSVPHLLAGLKALHIDPADIRYIIVTHIHLDHAGGVGVLLEHCPNATVIVHPKGKRHLADPSRLIAGAKAVYGEQFDALFDPIVPVPEERLLVKEDGETLVLSAERTLTFYDTPGHANHHFSIYDSYSGGVFTGDTIGVFYPQLQEAGLAFCLPSTSPNQFNPEAMKQSAERLEKLNPTRIYFGHFGALDQPEEAFRQLRFWLPKFVAAGKEVIARHPEAPAAEQAKAVTKLLHNDITAFLNECSIPASSPVYKVIELDLQVCAMGIIDYWRKQRLEHHHHHH”, the “soluble on expression in E. coli” value is given as “not soluble”. Turning to “MAVDAVGRQKTIQEIIDSTTNKSTQRNTGELGKDEFLNLLITQLQYQDPLNPVDDKEFISQMAQFSALEQMQNLNKSFSATKAFGMIGKYITGTTSNGSDSGAGFVEGIVRSVKMENGKILLEVNGLDVPVDNVLSVSEESNYYYKYNSSNISQYTGIIGYEVSGSVYDPSTGDIVGVSGIVREIQKGIYEDYAVMDGVEVIISGIDTEFNSADPNFRKDYLTENVGQGVSLIITDAYGYGFKVPVTGVLKDFKIAPNGKIIGILDGVYVPVDSISNIKKPSANTGAADGTNENPQVEQSQTEESQVEEPQVGEPRDEESDSV”, the “soluble on expression in E. coli” value is “soluble”. Turning to “MNDDALPVHSTDLLDFDEDFIKIDAAICEYDSVGHAPQRKGESAFQWASVETACLALLKKAKDVRVAIWYLRACIARRGLSGLADGVRLLAELMSAPVEELHPRALPDESPGETLLIHLGWLAGPQFLHQLGSSRFEDRDATLNDLIGGRAAAIVEDRDYCVRANTLVHDIKDSLSRIRESVAVVEQELNLSRSLDLLSVAASRLARTDAGRAESESVAGEKPAHAEAGFSPAPDPQQPAAGPGGALRSRQEVGVALERIVEYFRLHEPSHPAPIFLSRIQRMLGAGFEEVMAELYPEAASLVAQLNRPQSSIK”, the “soluble on expression in E. coli” value is recorded as “not soluble”. The value for “MQVLRLMALPLFALSLSVSITGCDQKNDTLQGKQNNMTAFIKKIAASKESEETQRYVGNLNGIEIKLTYYYKGDIVLRQISEHKLLYKTLKANNKEEAQKMLSQVGEAYQGMPGLTERIDYYDSYATEYVDINFTQAKISDLCKLPGSSIDNCSAYYLSMIRSQKLLEESGYHRIN” was “not soluble”; that for “MGSDKIHHHHHHMKYSPASETIFVADNQERTMRVEVMEHYGLTQSIEQAGYYETAHHKQLMKDIKGAIREGRLIAVCGVVGSGKTVTLRRLQQQLLDENKIIVARSLSVDKQSVRLATLINALFYDLAQDKQVQIHKQGERRERELQELVKKGKRPVALFVDEAHDLNGNTLTGLKRLMEVVEDGGGRLSVVLAGHPKLRNDLRRPTMEEIGYRTDIFTLDGITGSQREYIQWLLKTSTGKGKPEDILTTEAVDLLAMKLRTPLQVQLHLTLAMEAGYQTGEKPITATLVESVLSRQLDDLEPTLTRHGYRLKDMVEQFDAKPAEIRALFNNQLDPARTAELRDRMLAVGLPI” was “not soluble”; that for “MNKNKPFIVVIVGPTASGKTELSIELAKRINGEIISGDSMQVYKHMNIGTAKVTPEEMDGIPHHLIDILNPDDTFSAYEFKRLAEDLITDITNRGKVPIIAGGTGLYIQSLIYNYELEDETVTPAQLSIVKQKLSALEHLDNQQLHDYLAQFDAVSAENIHPNNRQRVLRAIEYYLKTKKLLSNRKKVQQFTENYDTLLLGIEMSRKTLYSRINKRVDIMLDHGLFREVQQLVEQGYESCQSMQAIGYKELIPVINGQMIYEDAVNDLKQHSRQYAKRQMTWFKNKMSVHWLDKENMSLQMMLDEITTQIKLEHHHHHH” was “soluble”. The value for “MAPTQAGHDTAYLKETVGEALARGCAAAISAQPNDPVEYLGLWLLKYVKNAEVEGNFYRERQQDLQKKKDRLVKEAQSEQAAKSVALTRKEAADALALVTAEPRELLEAAVKLVKQHTAAGAAYAAVVAEPEEPDWVAPEDDEAAAVETEDEAAGGAALAEGEEPPPEPEPEPEAAPEDGEGDAPAPKIPRPVDYSKKYFAYVAASAGQEHVLEADLYRPAPPPEDADEDFKPEPLPYSFRVLDEKLPMLYVPNVAAEERVKFFRKFPKIGSYQACGVALPASGEFKALLAADTLFPEGSGQPLSADDRDFVWEVSQSLSRALEAVQARAAEALAATSAAEAVEELKAKVAELREQAAAEAAAAAPPPPAEGEEGEGEAPPAEEEPPAEEEAEEEEEEAEEGAEEGAEEGEEGEEAPPKPKKKKKVFNPIPGLQAAIEKLTAAAEAATEADARAQAAVALEKQALDEVVALASSHSDATLSSLRNMLSVPQGTYHVVKALLHLLGRPAASFSTWKRAHSHFSPRLFEDMAAYDATAERDMAVWGRVRSCYKAAPAAKKLDAEMPNTLFGSVALMYIKQVRRVARKAVLQRELAAKLAKAQQDLADKQAALVEAERVKAEREAEEARLAAEAEAAAAAEAEAAARAAAEAEAAAAAEAAAEAAAEAAAAAAEAAAEAGEGEAVAEREAAPAEAEAAPAEGEAAPPAEGEGEAQPAQEGSNSSSSSSDSSSSEESKAAAE” was “not soluble”; that for “MGSDKIHHHHHHMTSPHSFSVTPIRTMADGTIKQIHPFTGTEVWTVPGRGNRPLSHPASTIVELSAHDHTSYCAFCSDNMLSTPPEKSRIIIDSSGDFDILPGALPGELSETTPEFRRVPNLFEIVSFDYWHQNFGFDMDSETAMRMAQYLAIPEGREHVLAIVRTRLSAAGEDPAHMTDGELLEKAPSYFAGGHDVIIGRRHFVDDATTSDQLASSGTLTVKEHEAFIRLTVDGIRDLYHRNRYAPYVVAFQNWLKPAGASFDHLHKQLVAIDERGRLIADELHHLRGNPNMYNELAVDYAGYHNLIIAENDHAVAFAGFGHRYPTIEIYSKSAIPEPWLQSDEEIQAMSNLIHACHAATGADVPCNEEWVHKPIDVDMPMPWHVMIKWRVSTLAGFEGGTKVYLNTLSPHKVRDRVVKEMYRLRDEELIASDLRIAMECSVERNSLKYNPLL” was “not soluble”; that for “MMDDILKQIKAGEVSGVQFKERILDKYDIACELVAFSNSHGGKLVVGIKDKTGETNALSYSEVQETTNLLSDIASENVVPSILIKIDTVEVEDGNLVVATVKEGLNKPYHDNKGIVWVKNGADKRKVFDNAELAEMMTDCGSFAPDEAGVRDATVNDLDATTIKQFLGNRFERVLDKKGLTGDAFNEASLDMICSAIAKGHDCEKILRNLRFIRPDGTLTVAAMLLFGKYTQRWMPMMTAKCICFAGNSVGSKVFRDKVNDADMEGNLLHQYDTIMDFFTRNLHNVQVGDEFNSMGKLEIPYTSLVEFTVNSLVHRSLNMKAPVRIFIFDNRVEIHSPGALPNGLTIDDIKAGTSMPRNTFLFNNAIYLLPYTGVGSGITRALDEDINVTFMNNDKAQEFVITVWRGESNQVEDLDTGLRHSDTDLDTGLRHSDTDLDTKRVTLTNKEKDIVNFCSVPRTTKEILDRIGVSMHSKNRERYITSLVAAGYLQMTNPDNPTASNQKYKKVNKRLEHHHHHH” was “soluble”.

Source of the values: the DeepSol protein solubility set.
